The values below come from patent US20250282887A1 (Amgen, published 2025).

One assay concerns the target T1, human MAGEA9 (human, UniProt P43362 1-315).
T1 construct: whole, on cells; FFPE cell pellets
T1 sequence (looked up): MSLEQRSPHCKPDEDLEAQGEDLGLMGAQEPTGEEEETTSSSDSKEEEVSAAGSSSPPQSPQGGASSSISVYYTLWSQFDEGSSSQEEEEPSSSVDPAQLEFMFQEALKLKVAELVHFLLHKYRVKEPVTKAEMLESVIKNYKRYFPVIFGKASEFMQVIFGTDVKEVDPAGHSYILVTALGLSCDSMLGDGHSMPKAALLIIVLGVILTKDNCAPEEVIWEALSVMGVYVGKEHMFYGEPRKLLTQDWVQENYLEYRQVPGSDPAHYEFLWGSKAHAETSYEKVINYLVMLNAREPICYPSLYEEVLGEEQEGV
Kind of assay: IHC, FFPE CHO cells transfected with human MAGEA9. The procedure: (§1) FFPE samples were sectioned at 4 μm and mounted on positive charged glass slides. After mounting, paraffin sections were air-dried at room temperature. FFPE TMA samples were received as freshly sectioned and mounted on glass slides. The fully automated IHC assay was performed on a Discovery Ultra Stainer (Ventana Medical Systems, Tucson, AZ) using Ventana Anti-Rabbit HQ (cat #760-4815), Ventana Anti-HQ HRP (cat #760-4820), and Ventana Antibody Diluent with Casein (cat #760-219) (Ventana Medical Systems, Tucson, AZ). The slides were baked on the Discovery Ultra Stainer at 60° C. for 8 minutes, de-paraffinized with Ventana Discovery wash (cat #950-510) for 3 cycles (8 minutes each) at 69° C., and underwent cell conditioning (target retrieval) at 95° C. for 16 minutes (for cell arrays) or 32 minutes (tissues or TMAs) in CC1 buffer (cat #950-500). Following this, slides were incubated with Background Sniper (cat #BS966M, Biocare Medical, Pacheco, CA) in a Ventana Option Prep kit (cat #771-751) for 28 minutes, incubated with CM inhibitor (a part of the Ventana DAB kit cat #760-159) for 12 minutes, and incubated for 1 h at RT with MAGE-B2 antibody diluted with Ventana diluent with Casein in a Ventana Prep kit (cat #770-001) (working concentration at 0.1 μg/ml for cell pellet, or 1-5 ug/ml for tissues) or with a matched concentration of isotype control Rabbit IgG1 antibody. Following this, slides were incubated with the Ventana Anti-Rabbit HQ (cat #760-4815) for 28 minutes at RT, Ventana Anti-HQ HRP (cat #760-4820) for 28 minutes at RT, and signals detected with Ventana DAB chromogen kit (cat #760-159) for 5 minutes at RT. Slides were counterstained with Ventana Hematoxylin II (cat #5266726001) for 8 minutes and Ventana Bluing reagent (cat #526676900) for 4 minutes. Slides were coverslipped and digitized using an Aperio AT2 scanner (Leica Biosystems Inc, Buffalo Grove, IL).

Another assay concerns the target T2, human MAGEB3 (human, UniProt O15480 1-346).
T2 construct: whole, on cells; Transfected into CHO cells with Myc/DDK tags
T2 sequence (looked up): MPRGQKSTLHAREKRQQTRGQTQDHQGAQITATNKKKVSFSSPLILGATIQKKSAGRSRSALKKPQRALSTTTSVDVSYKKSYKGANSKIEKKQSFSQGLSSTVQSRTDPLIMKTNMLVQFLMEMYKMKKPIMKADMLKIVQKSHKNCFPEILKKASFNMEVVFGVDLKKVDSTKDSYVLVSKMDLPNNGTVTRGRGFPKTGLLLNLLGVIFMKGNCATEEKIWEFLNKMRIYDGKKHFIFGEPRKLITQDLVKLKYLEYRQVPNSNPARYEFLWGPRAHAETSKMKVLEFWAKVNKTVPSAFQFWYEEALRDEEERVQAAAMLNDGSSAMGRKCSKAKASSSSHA
Kind of assay: IHC, FFPE CHO cells transfected with human MAGEB3.
From the text: Negative control cells included parental Chinese hamster ovary (CHO) cells, CHO cells stably transfected with mCherry Vector Control (minus Myc/DDK tags), CHO cells stably transfected with mCherry-human DCAF4L2 (plus Myc/DDK tags). The cross-reactivity control cells included CHO cells transfected with mCherry Vector Control (plus Myc/DDK tags) with one of the human MAGE-B or MAGE-A family members (MAGEA1, MAGEA2, MAGEA3, MAGEA4, MAGEA5, MAGEA6, MAGEA8, MAGEA9, MAGEA11, MAGEA12, MAGEB1, MAGEB3, MAGEB4, MAGEB5, MAGEB6, MAGEB10, MAGEB16, MAGEB17, MAGEB18). Positive control cell lines included CHO cells transfected with mCherry Vector (plus Myc/DDK tags) with human MAGE-B2 or CHO cells transfected with mCherry Vector (open reading frame (ORF); minus Myc/DDK tags) with human MAGEB2, and thirteen human cancer cell lines with known endogenous RNA expression level of MAGEB2 (U266B1, T98G, KMM-1, U20S, CFPAC-1, SCaBER, UACC-257, CFPAC-1, VMRC-LCD, NCI-H1703, UM-UC-3, NCI-H1395, NCIH82).
as §1, with “antibody.” for “antibody. Following this, slides were incubated with the Ventana Anti-Rabbit HQ (cat #760-4815) for 28 minutes at RT, Ventana Anti-HQ HRP (cat #760-4820) for 28 minutes at RT, and signals detected with Ventana DAB chromogen kit (cat #760-159) for 5 minutes at RT. Slides were counterstained with Ventana Hematoxylin II (cat #5266726001) for 8 minutes and Ventana Bluing reagent (cat #526676900) for 4 minutes. Slides were coverslipped and digitized using an Aperio AT2 scanner (Leica Biosystems Inc, Buffalo Grove, IL).”

B1: 1I14 (antibody, V domains shown)
VH: QSVEESGGRLVTPGTPLTLTCTISGFSLSSYAMSWVRQAPGKGLEWIGSIGGGGSAVYASWAKGRFTISKTSTTVDLRITSPTTEDTAMYFCGRGFYSIDLWGPGTLVTVSS
VL: DVVMTQTPASVEATVGGTVTIKCQSSQSVYDNNALAWYQQNAGQRPRLLIYGASTLASGVPSRFSASGSGTEFTLTISDLECADAATYYCQCTYYVSSYQNDFGGGTEVVVKG
notes: also called MAGE-B2 (1i14)
As to B1, the binding result in the assay with human MAGEA9 and with human MAGEB3 was “no binding (tested: 0.1 µg/ml)” in each case.

B2: 1C3 (antibody, V domains shown)
VH: QSLEESGGGLVQPEGSLTLTCTAFGVTLTNYYICWVRQAPGKGLEWVGCIDNANGRTYYASWAKGRFTISKTSSTTGTLQMTSLTAADTATYFCARSLATPLWGPGTLVTVSS
VL: DIVMTQTPSSVEAAVGGTVTIKCQASQNISSYLAWYQQKPGQPPKLLIYRASTLASGVPSRFKGSGSGTQFTLTISDLECADAATYYCQSYDDSRSSNFFYAFGGGTEVVVKG
notes: also called MAGE-B2 (IC3); anti-MAGEB2 antibody 1C3
With B2, the binding result with human MAGEA9 and with human MAGEB3 was “no binding (tested: 0.1 µg/ml)” in each case.

B3: 4G17 (antibody, IgG1, V domains shown)
VH: QSLEESGGGLVQPEGSLTLTCTASGVTLSNYYICWVRQAPGKGLEWIGCIDNVNGRTYYASWAKGRFTISKTSSTTGTLQMTSLTAADTATYFCARSLATPLWGPGTLVTVSS
VL: DIVMTQTPASVEAAVGGTVTIKCQASQNIDSYLAWYQQKPGQPPKLLIYRASTLASGVPSRFKGSGSGTEFTLTISDLECADAATYYCQSYDDSRSSSFFYGFGGGTEVVVK
notes: Rabbit monoclonal IgG1; Tested as supernatant and as small batch purified antibody; also called MAGE-B2 (4G17); anti-MAGEB2 antibody 4G17
As for B3, the binding result in the assay with human MAGEA9 and with human MAGEB3 was “no binding (tested: 0.1 µg/ml)” in each case.

B4: 1J15 (antibody, IgG1, V domains shown)
VH: QSLEESGGGLVQPEGSLTLTCTAFGFTLNNYYICWVRQAPGKGLEWIACIDNANGRTYYASWAKGRFTISKTSSTTVTLQMTSLTAADTATYFCARSLSTPLWGPGTLVTVSS
VL: DIVMTQTPASVEAAVGGTVTIKCQASQSISSYLSWYQQKPGQPPKLLIYRASTLASGVPSRFRGSGSGTQFTLTISDLECADAATYYCQSYDDSSDNNFFYGFGGGTEVVVR
notes: Rabbit monoclonal IgG1; Tested as supernatant and as small batch purified antibody; also called MAGE-B2 (IJ15); anti-MAGEB2 antibody 1J15
Take B4: the binding result with human MAGEA9 and with human MAGEB3 was “no binding (tested: 0.1 µg/ml)” in each case.
